Test results as given in US20030180744, “High affinity oligonucleotide ligands to growth factors” (GILEAD SCIENCES, INC., published 2003).
Residue numbers refer to the chain shown, from its start.

Key:
TGFβ1 [1] = target: T1, TGFβ1 (Homo sapiens, UniProt P01137 P01137:279-390); experiment: filter; not inhibitory; details: tags: Genentech; biotinylated version used in bead assay; chain copies: 2
KGF (hKGF) [2] = target: T2, KGF (hKGF) (Homo sapiens, UniProt P21781 P21781:32-194); experiment: filter; similar to random RNA; details: tags: Upstate Biotechnology; label: 32P
T2 sequence: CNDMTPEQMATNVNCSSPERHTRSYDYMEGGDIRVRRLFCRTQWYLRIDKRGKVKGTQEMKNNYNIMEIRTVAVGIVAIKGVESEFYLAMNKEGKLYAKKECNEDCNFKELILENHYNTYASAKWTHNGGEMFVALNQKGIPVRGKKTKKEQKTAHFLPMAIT

KGF (hKGF) [3] = target: T2, KGF (hKGF); experiment: filter; high +, low +; details: tags: Upstate Biotechnology
Experimental: In an effort to identify shorter KGF ligands that retained binding, the binding activity of various deletions of the shortest truncate of ligand 14F, namely 14F3′T were tested. Deletions were tested in all the structural elements of the proposed pseudoknot structure. RNA transcripts containing 2′F pyrimidines and 2′OH purines were obtained by in vitro transcription using synthetic DNA templates. The activity of each ligand is shown by scoring for both the high (H) and low (L) affinity component of the 14F3′T binding curve with +(active) or −(not active). Truncates T35 and T36 represent two complementary halves of 14F3′T molecule and were additionally tested as an equimolar mixture. The structural elements of the proposed pseudoknot structure are separated by (1) and are indicated by symbols S1 (stem 1), S2 (stem 2), L1 (loop 1) and L3 (loop 3). The proposed pseudoknot structure for 14F3′T is a non-H-type pseudoknot and lacks L2 (loop 2). The complementary sequences forming S1 (S1 and S1′) and S2 (S2 and S2′) are marked by single and double underlines respectfully. In the tabulated sequences, deleted bases were replaced with periods (.). […] Deletions in loop 3 (L3), however, were tolerated as long as one copy of the RRYY box remained intact. The shortest ligand that retained activity is T22 which is a 43-mer. In trying to obtain shorter ligands by truncating L3 further a mutant version of T22 (designated T22mu) was used where the last GC base pair of S1 was eliminated by a G to U mutation at position 6. The reasoning for this mutation was to enhance the flexibility of the double stranded region of this ligand by allowing an unpaired base between S1 and S2.

KGF (hKGF) [4] = target: T2, KGF (hKGF); experiment: filter; DPBS, 37 C; details: tags: Upstate Biotechnology; label: 32P
KGF (hKGF) [5] = target: T2, KGF (hKGF); experiment: competition; PC-3 cells; details: tags: Upstate Biotechnology
Experimental: PC-3 cells were plated in 24-well plates at about 10⁵ cells per well. Following growth for […], the cells were serum starved for 24 hours, washed two times with 500 μl of cold DPBS, and then incubated with 500 μl binding buffer (BB1; DPBS, 0.5 mM MgCl₂, 0.2% BSA. 0.02% sodium azide) containing various concentrations of ¹²⁵I-labeled KGF ranging from 0 to 0.8 nM. Following 3-3.5 hour incubation at 4° C., the binding mixes were aspirated and the well-adhered cells were washed two times with 1 ml BB1 and once with 1 ml BB1 supplemented with 0.5M NaCl. The remaining bound labeled hKGF was solubilized in 600 μl 0.5% SDS/0.1M NaOH and counted in a gamma counter (Beckmann). Nonspecific binding was determined in the presence of 100 fold molar excess of unlabeled hKGF. For competition assays, the labeled hKGF was kept constant at […], and varying concentrations of competitor molecules were included in the binding reactions ranging from 0-1,000 nM. Binding curves were fitted to the equation: […]
A subset of these ligands was tested on the NIH3T3/FGFR-2. In determining the Ki values, it was assumed that 3T3 cells have 500,000 binding sites per cell and PC-3 cells have 5,000 binding sites per cell.

TGFβ1 [6] = target: T1, TGFβ1; experiment: filter; boundary experiment, each terminus separately; details: tags: Genentech or R&D Systems; chain copies: 2
PDGF-BB = PDGF-BB (Homo sapiens, UniProt P01127 P01127:82-190); experiment: competition; PDGF alpha-receptor PAE cells, 4 C; details: tags: R&D Systems, E. coli; chain copies: B chain dimer; three-way helix junction
Sequence of PDGF-BB (P01127 82-190, one chain of several): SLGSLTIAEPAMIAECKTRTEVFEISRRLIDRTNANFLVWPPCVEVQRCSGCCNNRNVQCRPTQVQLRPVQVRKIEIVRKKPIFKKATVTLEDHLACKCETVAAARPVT
Experimental: The binding of ¹²⁵I-PDGF-AA and ¹²⁵I-PDGF-BB to porcine aortic endothelial (PAE) cells transfected with PDGF α- or β-receptors were performed as described (Heldin et al., (1988) EMBO J. 7:1387-1394). Different concentrations of DNA ligands were added to the cell culture (1.5 cm²) in 0.2 ml of phosphate buffered saline supplemented with 1 mg bovine serum albumin per ml together with ¹²⁵I-PDGF-AA (2 ng, 100,000 cpm) or ¹²⁵I-PDGF-BB (2 ng, 100,000 cpm). After incubation at 4° C. for 90 min, the cell cultures were washed and cell associated radioactivity determined in a γ-counter (Heldin et al., (1988) EMBO J. 7:1387-1394).
In order to determine whether the DNA ligands to PDGF were able to inhibit the effects of PDGF isoforms on cultured cells, the effects on binding of ¹²⁵I-labeled PDGF isoforms to PDGF α- and β-receptors stably expressed in porcine aortic endothelial (PAE) cells by transfection was determined.

TGFβ1 [7] = target: T1, TGFβ1; experiment: filter; not inhibitory in cell assay; details: tags: Genentech; biotinylated version used in bead assay; chain copies: 2
TGFβ1 [8] = target: T1, TGFβ1; experiment: cell_activity; details: tags: Genentech or R&D Systems; chain copies: 2
Experimental: MLEC-Pail/luc cells were plated at 3.2×10⁴ cells per well in a 96 well Falcon plate, in 100 μl of DME+10% fetal bovine serum overnight. Media was made from autoclaved water. The cells were washed three times ([…]) in serum free DME plus Solution A (1:1). Solution A is 30 mM Hepes pH 7.6, 10 mM glucose, 3.0 mM KCl, 131 mM NaCl, 1.0 mM disodium phosphate. Samples (100 μl) were added in DME containing 20 mM Hepes pH 7.5, and 0.1% BSA (Fluka, radioimmunoassay grade). All samples were in triplicate. After six hours at 37° C. in a 5% CO₂ incubator the media was removed and cells were washed three times (100 μl each) in cold PBS. Lysis buffer (75 μl) (Analytical Luminescence Laboratory) was added and the plates incubated on ice for 20 min. The plates were sealed and frozen at −80° C. until assayed. Samples (25 μl) were assayed for luciferase activity with the Enhanced Luciferase Assay Kit from Analytical Luminescence Laboratory (San Diego, Calif., USA) according to the manufacturer's instructions using the Berthold Microlumat LB96P luminometer.
Ligands tested for inhibition of TGFβ1 activity were tested at a minimum of five concentrations. The ligands were serially diluted in DME, 20 mM Hepes pH 7.5, 0.1% Fluka BSA in polypropylene tubes and an equal volume of media containing 12 pM TGFβ1 was added to each tube, vortexed and transferred to the cells without further incubation.

T1 sequence (P01137 279-390, one chain of several): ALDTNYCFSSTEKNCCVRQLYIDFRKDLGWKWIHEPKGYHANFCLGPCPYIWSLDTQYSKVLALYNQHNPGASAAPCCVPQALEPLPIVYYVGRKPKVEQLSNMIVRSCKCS

B1: lib6-30 (ssRNA)
RNA: GGGGGAGAACGCGGAUCCUGCUAGACCGAGGAUGCAAAGGGACAUGCAUUAGGGAAACCUAUUAUAAGAACGCGGUCGCAGAAGCUUCGCUCUAGAUCUCCCUUUAGUGAGGGUUA
modifications: 2'-F pyrimidines
Kd (TGFβ1 [1]): 8.8 nM

B2: 57N (ssRNA)
RNA: GGGAGGACGAUGCGGUCGUGGGGUGGGUGGGGGCAGCGUUGGAAUAAGUAACUGGUAACGGCUGGCCAGACGACUCGCCCGA
modifications: 2'-NH2 pyrimidines
Kd (KGF (hKGF) [2]): 35.8 nM

GGGAGGACGAUGCGGUGGUCUCCCCUAAACUUUCUCCAUCGUAUC (ssRNA, 2'-F pyrimidines) [T4]
binding result (KGF (hKGF) [3]): binds

B3: lib3-45 (ssRNA)
RNA: GGGGGAGAACGCGGAUCCGGAAGUCUGGUCUUUGGGGAGUCCGCAUGGCCCUGGCGAAAGCUUCGCUCUAGAUCUCCCUUUAGUGAGGGUUA
modifications: 2'-NH2 pyrimidines
Kd (TGFβ1 [1]): 1.9 nM

B4: 59N (ssRNA)
RNA: GGGAGGACGAUGCGGGGUGGGUGGUUACCUGUAAUUAUAUUGAUUCUGGCUUUAGCAGACGACUCGCCCGA
modifications: 2'-NH2 pyrimidines
Kd (KGF (hKGF) [2]): 22 nM

B5: 43F (ssRNA)
RNA: GGGAGGACGAUGCGGUGUAGUUUCCCUGUAUGCCAUUCUUUCCCAUGCCGCACGCCAGACGACUCGCCCGA
modifications: 2'-F pyrimidines
Kd (KGF (hKGF) [4]): 1.13 nM
IC50 (KGF (hKGF) [5]): 80 nM

B6: 65N (ssRNA)
RNA: GGGAGGACGAUGCGGUAACGUGGAAUAGGGUUAAACAGCUGGAAAUAACGUAGGUGGCCAGACGACUCGCCCGA
modifications: 2'-NH2 pyrimidines
Kd (KGF (hKGF) [2]): 26.6 nM

B7: lib4-12 boundaries (ssRNA)
RNA: GGAGAACGCGGAUCCUGAGAAGGACGUCGGGGUCAACGGGGUGAGGUGCAGCAGAAAGGGCCGGCACCA
modifications: modified pyrimidines
binding result (TGFβ1 [6]): binds

GGGAGGACGAUGCGGUGGUCUCCCAAUUCUAUUCUCCAUCGUAUC (ssRNA, 2'-F pyrimidines) [T5]
binding result (KGF (hKGF) [3]): binds

B8: lib9-10 (ssRNA)
RNA: GGGGGAGAACGCGGAUCCUGUCUCCACCGCCGAUACUGGGGUUCCUGGGGCCCCUCCAUGCAGGAGGGGUGGUUCGGAGAAAGCUUCGCUCUAGAUCUCCCUUUAGUGAGGGUUA
modifications: 2'-NH2 U, 2'-F C
Kd (TGFβ1 [1]): 1.1 nM

GCUUCCGAGUAGACAGGAGGGAGGGGUGGAUGUGGCGUCUAC (ssRNA, modified pyrimidines) [lib3-13 boundaries (38-79)]
binding result (TGFβ1 [6]): binds

TGGGAGGGCGCGTTCTTCGTGGTTACTTTTAGTCCCGT (ssDNA, 3'-3' idT) [20t]
IC50 (PDGF-BB): ~1 nM

B9: lib1-20-5 (ssRNA)
RNA: GGGGGAGAACGCGGAUCCAAGAAUGUUCGGCCGCACGAGGUGACAGUGGUGCGGAUACGGACCGAUUGGGUUUGCCAAGCUUCGCUCUAGAUCUCCCUUUAGUGAGGGUUA
modifications: 2'-F pyrimidines
Kd (TGFβ1 [1]): 46 nM

B10: lib5-48 (ssRNA)
RNA: GGGGGAGAACGCGGAUCCGGCAAUCCCAGGCGCAUAGCUUCCGAGUAGACAGGAGGGAGGGGUGGAUGUGGUGUACGAGGAAGCUUCGCUCUAGAUCUCCCUUUAGUGAGGGUUA
modifications: 2'-NH2 pyrimidines
Kd (TGFβ1 [7]): 3.8 nM

B11: lib6-23 (ssRNA)
RNA: GGGGGAGAACGCGGAUCCAAGCUUCGAGUAGACAGGAGGGAGGGGUGGAUGUGGAGUCUCGAGAAGCUUCGCUCUAGAUCUCCCUUUAGUGAGGGUUA
modifications: 2'-NH2 pyrimidines
Kd (TGFβ1 [7]): 3.4 nM

GGGAGGACGAUGCGGUGGUCUCCCAAUUCUAUCUCCAUCGUAUC (ssRNA, 2'-F pyrimidines) [T18]
binding result (KGF (hKGF) [3]): binds

GGGAGGACGAUGCGGUGGUCUCCCAAUUCUUUCUCCAUCGUAUC (ssRNA, 2'-F pyrimidines) [T21]
binding result (KGF (hKGF) [3]): binds

B12: lib1-20-3-82 (ssRNA)
RNA: GGGGGAGAACGCGGAUCCUGCUAGACCGAGGAUGCAAAGGGACAUGCAUUAGGGAAACCUAUGUAUAAGAACGCGGUCGCAG
modifications: 2'-F pyrimidines
Kd (TGFβ1 [1]): 6.1 nM

B13: lib7-21 (ssRNA)
RNA: GGGGGAGAACGCGGAUCCGAGCAAUCCCGGGCGCAUAGCUUCCGAGGAGACAGGCGGGAGGGGUGGAUGUGGCGUCUCGAGAAGCUUCGCUCUAGAUCUCCCUUUAGUGAGGGUUA
modifications: 2'-F U, 2'-NH2 C
Kd (TGFβ1 [7]): 2.4 nM

B14: lib2-6-4 (ssRNA)
RNA: B13 RNA with G29A, G47U, C55A, C73U
modifications: 2'-NH2 pyrimidines
Kd (TGFβ1 [7]): 3.1 nM

B15: lib7-43 (ssRNA)
RNA: B13 RNA with G29A, G47U
modifications: 2'-F U, 2'-NH2 C
Kd (TGFβ1 [7]): 3.3 nM

B16: lib8-9* (ssRNA)
RNA: GGGGGAGAACGCGGAUCCGCAAUCCCAGGCGCAUAGCUUCCGAGUAGACAGGAGGGAGGGGUGGAUGUGGCGUCUACUCGGCGUCGUGAAGCUUCGCUCUAGAUCUCCCUUUAGUGAGGGUUA
modifications: 2'-NH2-U, 2'-F-C
IC50 (TGFβ1 [8]): 124 nM
